Measurements from PMC5150261.

Tests used:
[1] = target: VHR (as used in the GST pull-down) (not stated (human or mouse cDNA cloned)) (UniProt P51452)
[2] = target: VHR (as used in the GST pull-down) (not stated (human or mouse cDNA cloned)) (UniProt P51452); remark: listed apart in the source

Sequence of UniProt P51452 (P51452 whole entry): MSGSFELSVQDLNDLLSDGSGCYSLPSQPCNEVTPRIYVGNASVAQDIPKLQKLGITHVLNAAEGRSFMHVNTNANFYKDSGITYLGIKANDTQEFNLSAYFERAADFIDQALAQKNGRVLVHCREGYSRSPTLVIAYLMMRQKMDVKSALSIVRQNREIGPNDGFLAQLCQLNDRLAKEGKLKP

Substance: GST-tagged full-length HSP70 (from UniProt P0DMV8 1-641) (natural protein)
- in vitro VHR phosphatase activity with purified recombinant p-ERK2 as substrate (1 μg GST-VHR with 2 μg His-HSP70, against VHR alone) [1]: 2 fold
- in vitro VHR phosphatase activity with pNPP as substrate (5 μg GST-VHR with 10 μg His-HSP70, against VHR alone) [2]: 2 fold
